B1: H4H10424P (antibody, human IgG4, V domains shown)
VH: QVQLVESGGGVVQPGRSLRLSCAASGFTFSSYGMHWVRQAPGKGLEWVAVIWYDGSNKYNADSVKGRFTISRDNSKNTVYLQMNSLRAEDTAVYYCARARNYDILTGYYNLGMDVWGQGTTVTVSS
VL: DIQMTQSPSSLSASVGDRVTITCRASQGIRNDLGWYQQKPGKAPKRLIYAASSLQSGVPSRFSGSGSGTEFTLTISSLQPEDFATYYCLQHNSYPYTFGQGTKLEIK
B2: H4H10424P (antibody, human IgG4, V domains shown)
VH: B1 VH
VL: B1 VL
B3: H4H10433P2 (antibody, human IgG4, V domains shown)
VH: EVQLVESGGGLVQAGRSLRLSCEASGFTFDDYGMHWVRQGPGKGLEWVSGISWNSGNIDYADSVKGRFTISRDNAKTSLYLQMNSLKTDDTALYFCAKDAVGFNWNYFLFDYWGQGTLVTVSS
VL: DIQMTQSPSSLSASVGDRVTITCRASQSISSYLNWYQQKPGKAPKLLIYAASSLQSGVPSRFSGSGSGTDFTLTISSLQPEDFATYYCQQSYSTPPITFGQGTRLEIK
B4: H4H10438P2 (antibody, human IgG4, V domains shown)
VH: EVQLVESGGGLVQPGRSLRLSCAASGFTFDDNAMHWVRQPPGKGLEWVSGISWNSGSIGYADSVKGRFTISRDNAKNSLYLQMNSLRAEDTALYYCAKDINDILTGYPLFDYWGQGTLVTVSS
VL: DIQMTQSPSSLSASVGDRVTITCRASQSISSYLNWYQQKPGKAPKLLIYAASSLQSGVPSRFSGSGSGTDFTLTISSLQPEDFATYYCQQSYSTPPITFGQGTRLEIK
B5: H4H10426P (antibody, human IgG4, V domains shown)
VH: EVQLVESGGNLVQSGRSLRLSCTASGFAFDDFAMHWVRQVPGKGLEWVSGISWNSDTIGYADSVKGRFTISRDNAQNSLFLQMDSLRAEDTALYYCVKDMVRGLIGYYYYGMDVWGQGTTVTVSS
VL: EIVLTQSPAILSLSPGERAILSCRASQSIYTYLSWYQQTPGRAPRLLIYETSSRATGIPARFIGSGSGTDFTLTISSLEPEDFAFYYCQHRSDWPPTFGQGTKLEIK
B6: H2aM10965N (antibody, mouse IgG2a, V domains shown)
VH: RVQLVQSGSEVKKPGASVKVSCRASGYIFTSYDINWVRQATGQGLEWMGWMNPNNGNTAYTQKFQGRVTMTRNTSISTAYMELSSLRSEDTAVYYCARKGLLWFGKLLGYGMDVWGQGTTVTVSS
VL: not shown
B7: H4H10437P2 (antibody, human IgG4, V domains shown)
VH: EVQLVESGGGLVQPGRSLRLSCAASGFTFDDYAMHWVRQAPGKGLEWVSGISWNSGSIGYADSVKGRFTISRDNAKNSLYLQMNSLRAEDTALYYCAKDIMGNWDYFYGMDVWGQGTTVTVSS
VL: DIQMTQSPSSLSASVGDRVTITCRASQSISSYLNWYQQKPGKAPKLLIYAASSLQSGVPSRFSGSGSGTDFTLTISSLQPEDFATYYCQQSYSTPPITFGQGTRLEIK

Tests used:
Activin A [1] = biological target: T1, Activin A (human, UniProt P08476 311-426); test: cell-based or functional assay
T1 sequence: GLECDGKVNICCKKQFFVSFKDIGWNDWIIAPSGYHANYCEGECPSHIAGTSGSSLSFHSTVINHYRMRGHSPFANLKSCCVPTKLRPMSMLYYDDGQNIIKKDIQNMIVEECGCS

Activin A [2] = biological target: T2, Activin A (human, UniProt P08476 311-426); test: SPR, captured mAb, 25C
T2 construct: Homodimer of two βA subunits; bought from R&D Systems (#338-AC); also called inhibin-βA dimer; human Activin A
T2 sequence: T1 sequence
Method: (§1) Antibody-antigen association was monitored for 240 seconds while dissociation in buffer was monitored for 600 seconds. Kinetic association and dissociation rate constants were determined by processing and fitting the data using Scrubber software version 2.0c. Binding equilibrium dissociation constants (KD) and dissociative half-lives (t_{1/2}) were then calculated from the kinetic rate constants as: KD (M)=kd/kₐ and t_{1/2} (min)=[ln 2/(60*kd)]. (NB=no binding observed under the conditions used; NT=not tested).

Activin A [3] = biological target: T2, Activin A; test: SPR, captured mAb, 37C
Method: as §1

| Binder | IC50 [M], inhibition of 100 pM Activin A in A204/CAGAx12-Luc Smad2/3-luciferase bioassay (Activin A [1]) [M] | Activin A-20 nM (RU) (Activin A [2]) | Kd (Activin A [2]) [nM] | koff (Activin A [2]) [s⁻¹] | kon (Activin A [2]) [M⁻¹ s⁻¹] | t1/2 (Activin A [2]) [min] | Activin A-20 nM (RU) (Activin A [3]) | Kd (Activin A [3]) [nM] | koff (Activin A [3]) [s⁻¹] | kon (Activin A [3]) [M⁻¹ s⁻¹] | t1/2 (Activin A [3]) [min] |
| --- | --- | --- | --- | --- | --- | --- | --- | --- | --- | --- | --- |
| B1 | 7.6e-10 | – | – | – | – | – | – | – | – | – | – |
| B2 | – | 82 | 0.229 | 0.000719 | 3.14e+06 | 16 | 58 | 0.794 | 0.00364 | 4.59e+06 | 3 |
| B3 | – | 16 | 0.0406 | 0.000577 | 1.42e+07 | 20 | 12 | 0.0537 | 0.00107 | 2e+07 | 11 |
| B4 | – | 25 | 0.0492 | 0.000588 | 1.2e+07 | 20 | 18 | 0.127 | 0.00238 | 1.87e+07 | 5 |
| B5 | – | 23 | 0.0595 | 0.0007 | 1.18e+07 | 16 | 21 | 0.123 | 0.00198 | 1.61e+07 | 6 |
| B6 | – | 76 | 0.745 | 0.0011 | 1.48e+06 | 10 | 80 | 1.77 | 0.00415 | 2.35e+06 | 3 |
| B7 | – | 30 | 0.134 | 0.00213 | 1.58e+07 | 5 | 20 | 0.229 | 0.00468 | 2.04e+07 | 2 |

Reference: patent US20150037339A1 (Regeneron, published 2015)
